Data reported in article PMC3787792.

Assays:
Assay in all cases: SEC + other: SDS-PAGE
[1] = biological target: IgG1-Fc variant K360E (soluble) (human)
[2] = biological target: IgG1-Fc variant K360Q (soluble) (human)
[3] = biological target: IgG1-Fc variant K392R (soluble) (human)
[4] = biological target: IgG1-Fc variant N421D (soluble) (human)
[5] = biological target: IgG1-Fc variant Q347E (soluble) (human)
[6] = biological target: IgG1-Fc variant Q418L (soluble) (human)
[7] = biological target: IgG1-Fc variant Q438K (soluble) (human)
[8] = biological target: IgG1-Fc variant Q438R (soluble) (human)
[9] = biological target: IgG1-Fc variant S354P (soluble) (human)
[10] = biological target: IgG1-Fc variant S400F (soluble) (human)
[11] = biological target: IgG1-Fc variant S424T (soluble) (human)
[12] = biological target: IgG1-Fc variant T437I (soluble) (human)

**Q.** How did the stoichiometry N [1] turn out when “IgG1-Fc variant K360E (soluble) (domain or fragment)” was run?
**A.** 2

**Q.** How did the stoichiometry N [2] turn out when “IgG1-Fc variant K360Q (soluble) (domain or fragment)” was run?
**A.** 2

**Q.** How did the stoichiometry N [3] turn out when “IgG1-Fc variant K392R (soluble) (domain or fragment)” was run?
**A.** 2

**Q.** Which stoichiometry N [4] does the source give for “IgG1-Fc variant N421D (soluble) (domain or fragment)” here?
**A.** 2

**Q.** “IgG1-Fc variant Q347E (soluble) (domain or fragment)” was tested. Which stoichiometry N [5] did it give?
**A.** 2

**Q.** Which stoichiometry N [6] does the source give for “IgG1-Fc variant Q418L (soluble) (domain or fragment)” here?
**A.** 2

**Q.** “IgG1-Fc variant Q438K (soluble) (domain or fragment)” was tested. Which stoichiometry N [7] did it give?
**A.** 2

**Q.** For “IgG1-Fc variant Q438R (soluble) (domain or fragment)”, which stoichiometry N [8] is on record?
**A.** 2

**Q.** With “IgG1-Fc variant S354P (soluble) (domain or fragment)” as the substance, how does the stoichiometry N [9] read?
**A.** 2

**Q.** How did the stoichiometry N [10] turn out when “IgG1-Fc variant S400F (soluble) (domain or fragment)” was run?
**A.** 2

**Q.** “IgG1-Fc variant S424T (soluble) (domain or fragment)” was tested. Which stoichiometry N [11] did it give?
**A.** 2

**Q.** “IgG1-Fc variant T437I (soluble) (domain or fragment)” was tested. Which stoichiometry N [12] did it give?
**A.** 2
